Laboratory results reported in publication PMC9482650, “Quantitative fragmentomics allow affinity mapping of interactomes” (Nature Communications, 2022).

T1: MPDZ_5, O75970
T1 sequence (O75970 695-796, limits assumed, looked up): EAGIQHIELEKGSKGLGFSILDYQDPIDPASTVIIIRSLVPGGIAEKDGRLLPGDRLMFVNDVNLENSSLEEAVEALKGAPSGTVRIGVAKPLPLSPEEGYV

T2: APBA1_2, Q02410
T2 sequence (Q02410 742-832, limits assumed, looked up): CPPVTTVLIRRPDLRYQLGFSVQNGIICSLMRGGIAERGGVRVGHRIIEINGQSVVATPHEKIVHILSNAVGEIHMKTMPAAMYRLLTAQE

T3: HTRA4, P83105
T3 sequence (P83105 378-476, limits assumed, looked up): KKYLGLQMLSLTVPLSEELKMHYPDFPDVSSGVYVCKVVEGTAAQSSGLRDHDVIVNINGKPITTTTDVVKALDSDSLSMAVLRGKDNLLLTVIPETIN

T4: MPP2, Q14168
T4 sequence (Q14168 180-250, limits assumed, looked up): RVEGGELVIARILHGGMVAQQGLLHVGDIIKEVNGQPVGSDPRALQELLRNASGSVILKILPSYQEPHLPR

T5: GRIP1_7, Q9Y3R0
T5 sequence (Q9Y3R0 999-1096, limits assumed, looked up): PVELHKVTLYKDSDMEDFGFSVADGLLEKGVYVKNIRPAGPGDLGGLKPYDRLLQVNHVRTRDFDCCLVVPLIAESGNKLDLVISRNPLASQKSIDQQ

T6: SNTG2, Q9NY99
T6 sequence (Q9NY99 68-166, limits assumed, looked up): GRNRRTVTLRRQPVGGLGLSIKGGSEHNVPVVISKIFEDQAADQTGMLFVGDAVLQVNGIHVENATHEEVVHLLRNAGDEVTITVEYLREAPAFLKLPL

T7: MPP7, Q5T2T1
T7 sequence (Q5T2T1 134-230, limits assumed, looked up): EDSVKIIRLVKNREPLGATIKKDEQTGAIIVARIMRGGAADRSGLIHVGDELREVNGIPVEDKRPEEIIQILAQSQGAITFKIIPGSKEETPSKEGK

T8: APBA2_2, Q99767
T8 sequence (Q99767 654-744, limits assumed, looked up): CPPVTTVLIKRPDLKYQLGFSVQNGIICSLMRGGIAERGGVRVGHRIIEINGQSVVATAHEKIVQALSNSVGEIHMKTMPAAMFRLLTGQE

T9: ARHGAP21, Q5T5U3
T9 sequence (Q5T5U3 45-169, limits assumed, looked up): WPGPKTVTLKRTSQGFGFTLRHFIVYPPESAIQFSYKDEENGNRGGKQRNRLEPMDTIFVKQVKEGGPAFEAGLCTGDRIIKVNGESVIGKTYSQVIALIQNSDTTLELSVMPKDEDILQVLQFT

T10: MPP6, Q9NZW5
T10 sequence (Q9NZW5 125-219, limits assumed, looked up): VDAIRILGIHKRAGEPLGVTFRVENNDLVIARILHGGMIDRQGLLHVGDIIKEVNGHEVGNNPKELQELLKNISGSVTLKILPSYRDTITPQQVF

T11: MPDZ_10, O75970
T11 sequence (O75970 1624-1722, limits assumed, looked up): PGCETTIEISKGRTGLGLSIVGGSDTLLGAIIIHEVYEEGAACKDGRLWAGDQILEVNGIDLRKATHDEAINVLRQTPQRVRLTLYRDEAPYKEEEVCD

T12: PCLO, Q9Y6V0
T12 sequence (Q9Y6V0 4491-4600, limits assumed, looked up): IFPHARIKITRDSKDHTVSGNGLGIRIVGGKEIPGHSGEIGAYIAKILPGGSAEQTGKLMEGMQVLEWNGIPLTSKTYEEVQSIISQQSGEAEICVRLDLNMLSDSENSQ


Legend:
Assay in all cases: holdup assay
Set-up in all cases: key: below the threshold = too weak to quantify, mostly under pKd 3.1 to 4
Conditions in all cases: plain residues with an end cap or a label only (N-terminal biotin on a linker: ado-ado)
LAP2, Q96RT1 = target: LAP2, Q96RT1
LNX1_1, Q8TBB1 = target: LNX1_1, Q8TBB1
DLG1_1, Q12959 = target: DLG1_1, Q12959
GRIP2_5, Q9C0E4 = target: GRIP2_5, Q9C0E4
MAGI2_3, Q86UL8 = target: MAGI2_3, Q86UL8
MAGI3_2, Q5TCQ9 = target: MAGI3_2, Q5TCQ9
MPDZ_5, O75970 = target: T1, MPDZ_5, O75970
IL16_1, Q14005 = target: IL16_1, Q14005
APBA1_2, Q02410 = target: T2, APBA1_2, Q02410
HTRA4, P83105 = target: T3, HTRA4, P83105
MAGI2_6, Q86UL8 = target: MAGI2_6, Q86UL8
MPP2, Q14168 = target: T4, MPP2, Q14168
NHERF2_2, Q15599 = target: NHERF2_2, Q15599
DLG1_3, Q12959 = target: DLG1_3, Q12959
GRIP1_7, Q9Y3R0 = target: T5, GRIP1_7, Q9Y3R0
SNTG2, Q9NY99 = target: T6, SNTG2, Q9NY99
MPP7, Q5T2T1 = target: T7, MPP7, Q5T2T1
GRIP2_3, Q9C0E4 = target: GRIP2_3, Q9C0E4
APBA2_2, Q99767 = target: T8, APBA2_2, Q99767
ARHGAP21, Q5T5U3 = target: T9, ARHGAP21, Q5T5U3
SCRIB_2, Q14160 = target: SCRIB_2, Q14160
NHERF4_2, Q86UT5 = target: NHERF4_2, Q86UT5
MPP6, Q9NZW5 = target: T10, MPP6, Q9NZW5
GRIP2_4, Q9C0E4 = target: GRIP2_4, Q9C0E4
MPDZ_10, O75970 = target: T11, MPDZ_10, O75970
PCLO, Q9Y6V0 = target: T12, PCLO, Q9Y6V0

Sequence of GRIP2_3, Q9C0E4 (Q9C0E4 238-339): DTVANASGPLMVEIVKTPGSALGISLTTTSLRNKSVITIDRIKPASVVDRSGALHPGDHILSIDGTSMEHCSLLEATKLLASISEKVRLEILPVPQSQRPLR
Sequence of SCRIB_2, Q14160 (Q14160 857-960): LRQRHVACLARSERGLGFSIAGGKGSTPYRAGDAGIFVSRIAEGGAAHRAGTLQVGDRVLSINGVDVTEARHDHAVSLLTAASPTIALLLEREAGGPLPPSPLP
Sequence of LAP2, Q96RT1 (Q96RT1 other isoform, or with tags, fused parts or gaps): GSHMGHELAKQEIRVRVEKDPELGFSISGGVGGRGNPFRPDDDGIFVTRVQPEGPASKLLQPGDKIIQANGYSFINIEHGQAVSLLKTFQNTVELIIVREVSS
Sequence of IL16_1, Q14005 (Q14005 210-306): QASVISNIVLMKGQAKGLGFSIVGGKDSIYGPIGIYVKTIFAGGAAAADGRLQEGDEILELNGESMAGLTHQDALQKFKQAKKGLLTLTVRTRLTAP
Sequence of LNX1_1, Q8TBB1 (Q8TBB1 261-371): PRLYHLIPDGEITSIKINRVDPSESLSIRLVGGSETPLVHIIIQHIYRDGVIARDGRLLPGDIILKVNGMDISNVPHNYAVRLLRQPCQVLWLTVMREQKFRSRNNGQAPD
Sequence of MAGI2_3, Q86UL8 (Q86UL8 600-682): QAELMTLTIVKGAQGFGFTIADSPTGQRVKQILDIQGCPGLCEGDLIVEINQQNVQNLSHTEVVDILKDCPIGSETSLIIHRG
Sequence of GRIP2_5, Q9C0E4 (Q9C0E4 544-642): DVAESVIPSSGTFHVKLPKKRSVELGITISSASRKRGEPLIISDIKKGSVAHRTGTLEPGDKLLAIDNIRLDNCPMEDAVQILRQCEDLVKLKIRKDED
Sequence of MAGI2_6, Q86UL8 (Q86UL8 1141-1229): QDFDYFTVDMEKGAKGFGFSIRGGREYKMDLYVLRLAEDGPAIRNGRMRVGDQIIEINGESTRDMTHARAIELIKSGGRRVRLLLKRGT
Sequence of MAGI3_2, Q5TCQ9 (Q5TCQ9 398-503): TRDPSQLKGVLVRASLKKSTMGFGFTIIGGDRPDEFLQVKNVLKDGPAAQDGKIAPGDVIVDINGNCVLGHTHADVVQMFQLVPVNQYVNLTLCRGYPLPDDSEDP
Sequence of GRIP2_4, Q9C0E4 (Q9C0E4 446-548): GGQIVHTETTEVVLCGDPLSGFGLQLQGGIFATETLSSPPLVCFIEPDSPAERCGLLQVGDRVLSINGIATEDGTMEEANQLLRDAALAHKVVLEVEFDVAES
Sequence of NHERF4_2, Q86UT5 (Q86UT5 220-308): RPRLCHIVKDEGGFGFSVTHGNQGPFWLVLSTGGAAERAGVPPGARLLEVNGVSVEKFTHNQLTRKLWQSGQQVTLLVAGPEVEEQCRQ
Sequence of NHERF2_2, Q15599 (Q15599 142-238): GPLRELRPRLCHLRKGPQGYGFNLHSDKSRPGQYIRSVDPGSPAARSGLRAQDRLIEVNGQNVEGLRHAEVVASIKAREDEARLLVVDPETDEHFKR

Binder	pKd (LAP2, Q96RT1)	pKd (LNX1_1, Q8TBB1)	pKd (DLG1_1, Q12959)	pKd (GRIP2_5, Q9C0E4)	pKd (MAGI2_3, Q86UL8)	pKd (MAGI3_2, Q5TCQ9)	pKd (MPDZ_5, O75970)	pKd (IL16_1, Q14005)	pKd (APBA1_2, Q02410)	pKd (HTRA4, P83105)	pKd (MAGI2_6, Q86UL8)	pKd (MPP2, Q14168)	pKd (NHERF2_2, Q15599)	pKd (DLG1_3, Q12959)	pKd (GRIP1_7, Q9Y3R0)	pKd (SNTG2, Q9NY99)	pKd (MPP7, Q5T2T1)	pKd (GRIP2_3, Q9C0E4)	pKd (APBA2_2, Q99767)	pKd (ARHGAP21, Q5T5U3)	also measured
QELLEYETTV [XKR7, Q5GH72]	4.56	4.57	4.96	3.48	below the threshold	4.44	below the threshold	4.12	3.65	below the threshold	4.45	below the threshold	4.33	4.09	below the threshold	4.69	below the threshold	below the threshold	below the threshold	4.19	pKd (SCRIB_2, Q14160): 4.42; pKd (NHERF4_2, Q86UT5): below the threshold; pKd (MPP6, Q9NZW5): below the threshold; pKd (GRIP2_4, Q9C0E4): below the threshold; pKd (MPDZ_10, O75970): below the threshold; pKd (PCLO, Q9Y6V0): below the threshold
SKSLERATQL [COMMD3, Q9UBI1]	below the threshold	3.87	3.55	below the threshold	below the threshold	3.75	below the threshold	below the threshold	4.16	below the threshold	3.79	below the threshold	4.58	3.97	3.51	below the threshold	below the threshold	below the threshold	below the threshold	below the threshold	pKd (SCRIB_2, Q14160): 3.55; pKd (NHERF4_2, Q86UT5): below the threshold; pKd (MPP6, Q9NZW5): below the threshold; pKd (GRIP2_4, Q9C0E4): below the threshold; pKd (MPDZ_10, O75970): below the threshold; pKd (PCLO, Q9Y6V0): below the threshold
REVVMRVTTV [MARCHF9, Q86YJ5]	3.87	4.41	5.24	below the threshold	4.6	5.16	below the threshold	4.17	3.77	4.5	4.4	below the threshold	below the threshold	5.01	below the threshold	4.65	below the threshold	below the threshold	below the threshold	below the threshold	pKd (SCRIB_2, Q14160): 4.15; pKd (NHERF4_2, Q86UT5): 3.49; pKd (MPP6, Q9NZW5): 3.63; pKd (GRIP2_4, Q9C0E4): below the threshold; pKd (MPDZ_10, O75970): 4.4; pKd (PCLO, Q9Y6V0): below the threshold
WRSKRTDTLL [RAMP3, O60896]	below the threshold	below the threshold	3.84	below the threshold	below the threshold	4.37	below the threshold	below the threshold	below the threshold	below the threshold	3.69	below the threshold	4.05	below the threshold	below the threshold	below the threshold	below the threshold	below the threshold	below the threshold	4.27	pKd (SCRIB_2, Q14160): below the threshold; pKd (NHERF4_2, Q86UT5): below the threshold; pKd (MPP6, Q9NZW5): 3.75; pKd (GRIP2_4, Q9C0E4): below the threshold; pKd (MPDZ_10, O75970): below the threshold; pKd (PCLO, Q9Y6V0): below the threshold
